Measurements as given in US8361442B2, “Oxime conjugates and methods for their formation and use” (The General Hospital Corporation, priority 2002, dated 2013).

Columns and labels:
[1] = parameters: species or system CD1 mice; conditions: mouse, in vivo, iv
Description: For animal studies, protein conjugates were labeled with [^111In] after modification of the trypsin portion of conjugates with DTPA. EDC mediated coupling was carried out in aqueous solution at DTPA/EDC/Trypsin lysine residue ratio 500:50:1 at pH 7.5. The resultant DTPA-labeled conjugates were purified by gel chromatography on Sephadex G-25. DTPA to protein molar ratio, as determined by Cu(II) colorimetric assay at 775 nm was approximately 1:4. Unmodified proteins were labeled analogously.
Labeling was performed by transchelation from [^111In] citrate. The labeling solution was prepared by mixing carrier-free [^111In] indium chloride in 0.05 M HCl with a 20-fold volume excess of 0.5 M sodium citrate, pH=5.6. The resultant [^111In] indium citrate solution was added to unbuffered solutions of DTP-modified polymers at 0.2 to 1 mCi of [^111In] per 1 mg of dry substance. The labeled conjugates were separated by gel chromatography on Sephadex G-25, with simultaneous media replacement to sterile isotonic saline. […]
Mice were euthanized at 0.25, 0.5, 1, 2, 4, and 8 hours (n=2). Blood samples and harvested organs (hart, lungs, liver, spleen, kidneys, adrenal glands, stomach, GI, testes, muscle, bone, brain and tail) were analyzed on gamma counter. The amount of radioactivity per organ was expressed as a percentage of the injected dose per gram tissue.

[2] = parameters: species or system mice and rats; conditions: in vivo
Description: Biokinetics and biodistributions were studied by blood and tissue sampling in rats, mice and rabbits using ^111In labeled preparations at clinically relevant doses. Fast initial stages (if present) were studied by dynamic gamma-scintigraphy in anesthetized animals.
Biokinetics of unmodified polyals of various molecular weights were studied in normal mice, rats and rabbits. Biokinetics of model nanocarriers (PHF graft copolymers) and polyal-modified liposomes were studied in rats. Biokinetics of formylpeptide conjugates were studied in normal rabbits and rabbits with focal bacterial inflammation. Protein conjugates were studied in mice and rats.

B1: Trypsin: Bovine pancreatic trypsin (EC 3.4.21.4) Type III; DTPA-modified, 111In-labeled for animal studies (protein, UniProt P00760 24-246, looked up)
Serine protease 1: IVGGYTCGANTVPYQVSLNSGYHFCGGSLINSQWVVSAAHCYKSGIQVRLGEDNINVVEGNEQFISASKSIVHPSYNSNTLNNDIMLIKLKSAASLNSRVASISLPTSCASAGTQCLISGWGNTKSSGTSYPDVLKCLKAPILSDSSCKSAYPGQITSNMFCAGYLEGGKDSCQGDSGGPVVCSGKLQGIVSWGSGCAQKNKPGVYTKVCNYVSWIKQTIASN
modifications: DTPA-modified, 111In-labeled
notes: Bovine pancreatic trypsin (EC 3.4.21.4) Type III; DTPA-modified, 111In-labeled for animal studies
[1]
  clearance of activity from blood within 15 minutes after administration: 80%
  half-life of secondary monoexponential clearance: 4 ± 0.8 h
[2]
  blood half-life of unmodified protein: 7 min
